Target: α-synuclein 1-140 (UniProt P37840)
Test: membrane pelleting, Western blot of dimers/trimers
Conditions: reference: WT (unphosphorylated) α-synuclein; sites S129

## α-synuclein 1-140 (from UniProt P37840) pS129 α-synuclein
  other: oligomer/monomer ratio: stronger; reference 0.22 ± 0.07

— PMC10881165
